In patent US20260167710A1:

What was measured:
[1] = molecular target: human complement component C1q (human) (UniProt P02745); experiment: SPR (ProteOn XPR36), antibody immobilised by amine coupling, C1q as analyte, equilibrium fit, 25 C
[2] = molecular target: cynomolgus recombinant neonatal receptor (FcRn) (cynomolgus monkey) (UniProt Q8SPV9); experiment: SPR (ProteOn XPR36), antibody captured by protein L, FcRn as analyte, equilibrium fit, pH 6.0, 25 C
[3] = molecular target: human recombinant neonatal receptor (FcRn) (human) (UniProt P55899); experiment: as above
Sequence of human recombinant neonatal receptor (FcRn) (human) (P55899 24-297 limits assumed, chain 1 of 2): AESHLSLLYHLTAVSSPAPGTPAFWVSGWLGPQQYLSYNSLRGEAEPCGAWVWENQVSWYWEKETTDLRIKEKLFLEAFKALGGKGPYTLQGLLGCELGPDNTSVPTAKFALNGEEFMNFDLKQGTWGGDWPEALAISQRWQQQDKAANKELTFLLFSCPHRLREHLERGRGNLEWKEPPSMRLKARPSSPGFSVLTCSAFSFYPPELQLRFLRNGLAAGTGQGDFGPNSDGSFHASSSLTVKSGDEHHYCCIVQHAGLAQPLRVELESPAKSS
Sequence of human recombinant neonatal receptor (FcRn) (human) (P61769 21-119 limits assumed, chain 2 of 2, further chain): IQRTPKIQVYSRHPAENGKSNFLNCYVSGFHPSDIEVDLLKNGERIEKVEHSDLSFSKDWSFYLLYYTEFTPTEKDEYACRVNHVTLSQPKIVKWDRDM

[4] = molecular target: cFcgRIIb (cynomolgus monkey); experiment: SPR (ProteOn XPR36), anti-poly-histidine IgG surface, antibody as analyte, equilibrium fit, 25 C
hFcgRIIa (H131) (human) = hFcgRIIa (H131) (human) (UniProt P12318); experiment: as above
Sequence of hFcgRIIa (H131) (human) (P12318 34-217): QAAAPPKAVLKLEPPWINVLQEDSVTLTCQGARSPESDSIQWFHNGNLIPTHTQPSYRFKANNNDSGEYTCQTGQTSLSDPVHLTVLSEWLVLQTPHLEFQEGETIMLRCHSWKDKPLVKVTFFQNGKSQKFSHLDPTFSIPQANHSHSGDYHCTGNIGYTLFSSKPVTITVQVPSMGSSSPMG

hFcgRIIIa (V158) (human) = hFcgRIIIa (V158) (human) (UniProt P08637); experiment: as above
Sequence of hFcgRIIIa (V158) (human) (P08637 17-208 F176V): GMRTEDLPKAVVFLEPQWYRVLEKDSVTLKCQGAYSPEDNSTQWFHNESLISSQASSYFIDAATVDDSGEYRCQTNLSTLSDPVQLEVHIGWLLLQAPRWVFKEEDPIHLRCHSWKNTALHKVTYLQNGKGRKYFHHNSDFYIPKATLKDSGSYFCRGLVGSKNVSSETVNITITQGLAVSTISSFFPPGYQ

[5] = molecular target: cFcgRIIa (cynomolgus monkey); experiment: as above
hFcgRIIa (R131) (human) = hFcgRIIa (R131) (human) (UniProt P12318); experiment: as above
Sequence of hFcgRIIa (R131) (human) (P12318 34-217 H167R): as the sequence (P12318 34-217) above, with H134R counted along it

hFcgRI (human) = hFcgRI (human) (UniProt P12314); experiment: as above
Sequence of hFcgRI (human) (P12314 16-292): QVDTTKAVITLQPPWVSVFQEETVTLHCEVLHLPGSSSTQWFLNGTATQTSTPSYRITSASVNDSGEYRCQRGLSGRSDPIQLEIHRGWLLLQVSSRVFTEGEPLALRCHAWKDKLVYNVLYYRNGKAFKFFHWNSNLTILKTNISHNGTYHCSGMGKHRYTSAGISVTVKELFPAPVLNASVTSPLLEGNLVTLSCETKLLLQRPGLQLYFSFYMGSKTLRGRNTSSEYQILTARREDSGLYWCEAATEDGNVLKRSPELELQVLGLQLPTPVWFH

[6] = molecular target: cFcgRIIIa (cynomolgus monkey); experiment: as above
Sequence of cFcgRIIIa (cynomolgus monkey) (Q8SPW2 17-208): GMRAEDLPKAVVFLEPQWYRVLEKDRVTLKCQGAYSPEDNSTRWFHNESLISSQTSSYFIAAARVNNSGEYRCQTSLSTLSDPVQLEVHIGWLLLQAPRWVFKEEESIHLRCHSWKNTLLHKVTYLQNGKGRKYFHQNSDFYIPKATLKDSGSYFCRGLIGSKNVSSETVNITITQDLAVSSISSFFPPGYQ

hFcgRIIIa (F158) (human) = hFcgRIIIa (F158) (human) (UniProt P08637); experiment: as above
Sequence of hFcgRIIIa (F158) (human) (P08637 17-208): as the sequence (P08637 17-208 F176V) above, with V160F counted along it

[7] = molecular target: cynomolgus recombinant neonatal receptor (FcRn) (cynomolgus monkey) (UniProt Q8SPV9); experiment: SPR (ProteOn XPR36), antibody captured by protein L, FcRn as analyte, equilibrium fit, pH 7.4, 25 C
[8] = molecular target: human recombinant neonatal receptor (FcRn) (human) (UniProt P55899); experiment: as above

Sequence of human complement component C1q (human) (P02745 23-245 limits assumed, chain 1 of 3): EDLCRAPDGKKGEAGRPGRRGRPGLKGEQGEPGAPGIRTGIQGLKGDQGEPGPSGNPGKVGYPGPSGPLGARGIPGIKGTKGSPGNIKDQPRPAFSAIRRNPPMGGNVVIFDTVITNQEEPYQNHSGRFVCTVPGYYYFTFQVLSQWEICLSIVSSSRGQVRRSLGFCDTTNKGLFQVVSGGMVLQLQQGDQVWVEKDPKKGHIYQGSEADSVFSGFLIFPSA
Sequence of human complement component C1q (human) (P02746 28-253 limits assumed, chain 2 of 3, further chain): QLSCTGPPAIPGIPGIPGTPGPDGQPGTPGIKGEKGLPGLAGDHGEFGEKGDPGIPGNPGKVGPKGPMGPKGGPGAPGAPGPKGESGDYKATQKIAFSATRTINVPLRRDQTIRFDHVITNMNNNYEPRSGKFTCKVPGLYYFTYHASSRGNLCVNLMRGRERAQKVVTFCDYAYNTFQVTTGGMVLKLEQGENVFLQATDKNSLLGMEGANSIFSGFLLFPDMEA
Sequence of human complement component C1q (human) (P02747 29-245 limits assumed, chain 3 of 3, further chain): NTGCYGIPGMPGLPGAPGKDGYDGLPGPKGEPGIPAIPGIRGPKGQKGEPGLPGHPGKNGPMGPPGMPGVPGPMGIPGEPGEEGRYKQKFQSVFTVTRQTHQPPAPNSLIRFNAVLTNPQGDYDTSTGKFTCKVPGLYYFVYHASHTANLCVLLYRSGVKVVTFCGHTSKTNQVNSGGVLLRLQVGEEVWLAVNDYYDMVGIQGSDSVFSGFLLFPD

Substance	Kd [1] [nM]	Kd [2] [nM]	Kd [3] [nM]	Kd [4] [nM]	Kd (hFcgRIIa (H131) (human)) [nM]	Kd (hFcgRIIIa (V158) (human)) [nM]	Kd [5] [nM]	Kd (hFcgRIIa (R131) (human)) [nM]	Kd (hFcgRI (human)) [nM]	Kd [6] [nM]	Kd (hFcgRIIIa (F158) (human)) [nM]	Kd [7] [nM]	Kd [8] [nM]
Anti-RSV hIgG1 wildtype control (antibody)	680	146	129	1450	884	232	2210	528	28.3	141	735		
Human IgG1 YTE control (antibody)		39.3	30.4									2760	4330
